Laboratory results reported in patent publication US20180086837A1 (Ablynx, published 2018).

Columns and labels:
human CXCR4 [1] = target: T1, human CXCR4 (human, UniProt P61073 1-352); test: cell-based or functional assay
human CXCR4 [2] = target: T1, human CXCR4; test: inhibition of 12G5 (competitor, 10 nM PE-labelled) binding, Jurkat cells; 12G5 mAb binding inhibition on Jurkat cells (CD4 low)
human CXCR4 [3] = target: T1, human CXCR4; test: SDF-1^AF647 displacement, SUPT-1 cells, flow cytometry, n = 3; SDF-1^AF647 displacement on SUPT-1 cells (CXCR4 and CD4 co-expressed)
human CXCR4 [4] = target: T1, human CXCR4; test: inhibition of 12G5 (competitor, 10 nM PE-labelled) binding, SUPT-1 cells; 12G5 mAb binding inhibition on SUPT-1 cells (CXCR4 and CD4 co-expressed)
human CXCR4 [5] = target: T1, human CXCR4; test: inhibition of 12G5 binding, Jurkat cells; 12G5 inhibition on Jurkat cells; potency ratio to monovalent 281F12
human CXCR4 [6] = target: T1, human CXCR4; test: cell-based or functional assay; remark: listed apart in the source
[7] = target: T2, human CD4 expressed on cells (human, UniProt P01730 26-458); test: cell-based or functional assay
[8] = target: T2, human CD4 expressed on cells; test: cell-based or functional assay; remark: listed apart in the source
[9] = target: T2, human CD4 expressed on cells; test: cell-based or functional assay; remark: listed apart in the source
[10] = target: T2, human CD4 expressed on cells; test: cell-based or functional assay; remark: listed apart in the source
cynomolgus CD4 = target: T3, cynomolgus CD4 (cynomolgus, UniProt P79185 26-458); test: flow cytometry on the cynomolgus CD4+ T cell line HSC-F, anti-Flag + goat anti-mouse-PE
T3 construct: whole, on cells; also called cyno CD4
T3 sequence (P79185 26-458): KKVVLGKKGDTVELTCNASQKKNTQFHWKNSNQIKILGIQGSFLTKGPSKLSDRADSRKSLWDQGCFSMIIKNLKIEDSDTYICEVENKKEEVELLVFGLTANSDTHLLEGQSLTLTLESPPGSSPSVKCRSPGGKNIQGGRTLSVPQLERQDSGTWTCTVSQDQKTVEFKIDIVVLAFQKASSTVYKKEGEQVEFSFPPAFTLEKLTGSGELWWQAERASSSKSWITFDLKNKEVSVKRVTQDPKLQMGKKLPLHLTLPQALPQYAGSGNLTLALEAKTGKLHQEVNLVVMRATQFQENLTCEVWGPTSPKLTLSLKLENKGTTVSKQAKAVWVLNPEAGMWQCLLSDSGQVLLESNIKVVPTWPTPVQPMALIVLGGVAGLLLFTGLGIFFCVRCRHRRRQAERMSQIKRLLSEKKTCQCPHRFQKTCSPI

[11] = target: T2, human CD4 expressed on cells; test: cell-based or functional assay; remark: listed apart in the source
[12] = target: T2, human CD4 expressed on cells; test: flow cytometry, Jurkat cells
[13] = target: T2, human CD4 expressed on cells; test: cell-based or functional assay; remark: listed apart in the source
[14] = target: T2, human CD4 expressed on cells; test: flow cytometry, Jurkat E6-1 cells (CXCR4+/CD4low); Jurkat E6-1 cells (CXCR4+/CD4low), average of 3 experiments
[15] = target: T2, human CD4 expressed on cells; test: flow cytometry, primary human T cells, anti-flag detection
human CXCR4 [16] = target: T1, human CXCR4; test: ELISA on coated hCXCR4 lipoparticles versus null lipoparticles, anti-c-myc + anti-mouse-HRP
[17] = target: T2, human CD4 expressed on cells; test: cell-based or functional assay; remark: listed apart in the source
[18] = target: T2, human CD4 expressed on cells; test: flow cytometry, THP-1 cells, anti-flag detection
[19] = target: T2, human CD4 expressed on cells; test: flow cytometry, MOLM-13 cells (CXCR4+/CD4+)
[20] = target: T2, human CD4 expressed on cells; test: flow cytometry, THP-1 cells
[21] = target: T2, human CD4 expressed on cells; test: cell-based or functional assay; remark: listed apart in the source
[22] = target: T2, human CD4 expressed on cells; test: flow cytometry, MOLM-13 cells, anti-flag detection

T1 sequence (P61073 whole entry): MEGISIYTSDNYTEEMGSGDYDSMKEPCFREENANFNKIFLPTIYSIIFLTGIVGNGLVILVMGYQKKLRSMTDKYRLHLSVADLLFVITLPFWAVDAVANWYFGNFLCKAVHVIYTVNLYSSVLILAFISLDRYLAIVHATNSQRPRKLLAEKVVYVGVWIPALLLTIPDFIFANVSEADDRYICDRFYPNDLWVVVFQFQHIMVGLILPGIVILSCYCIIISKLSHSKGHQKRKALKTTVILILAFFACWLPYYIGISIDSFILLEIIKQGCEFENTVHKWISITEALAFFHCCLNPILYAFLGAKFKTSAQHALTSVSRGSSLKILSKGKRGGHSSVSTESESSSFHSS

B1: 03F11-35GS-281F12 (bispecific antibody)
chain: EVQLVESGGGSVQPGGSLTLSCGTSGRTFNVMGWFRQAPGKEREFVAAVRWSSTGIYYTQYADSVKSRFTISRDNAKNTVYLEMNSLKPEDTAVYYCAADTYNSNPARWDGYDFRGQGTQVTVSSGGGGSGGGGSGGGGSGGGGSGGGGSGGGGSGGGGSEVQLVESGGGLVQAGDSLRLSCAASGRAFSRYAMGWFRQAPGKEREFVAAIGWGPSKTNYADSVKGRFTISRDNAKNTVYLQMNTLKPEDTAVYSCAAKFVNTDSTWSRSEMYTYWGQGTQVTVSS
notes: Bispecific Nanobody construct, CD4 arm N-terminal; also called CD4-35GS-CXCR4; 3F11-281F12; not shown: C-terminal c-myc-His6 tag (E. coli) or FLAG3-His6 tag (Pichia)
IC50, SDF-1 induced Ca2+ signaling, U87-CD4-CXCR4 cells (human CXCR4 [1]): 3.43 nM | IC50 (human CXCR4 [2]): 631 nM | IC50 (human CXCR4 [3]): 1.5 nM | IC50 (human CXCR4 [4]): 56.6 nM | fold loss of potency compared to monovalent CXCR4 Nanobody construct (human CXCR4 [5]): 50 fold | IC50, inhibition of SDF-1a-mediated chemotaxis, Jurkat E6-1 cells (human CXCR4 [6]): 460 nM | IC50, inhibition of SDF-1a-mediated chemotaxis, MOLM-13 cells (human CXCR4 [6]): 1.29 nM | Ratio to 281F12 (fold increase in potency), chemotaxis, Jurkat E6-1 cells (human CXCR4 [6]): 0.2 fold | Ratio to 281F12 (fold increase in potency), chemotaxis, MOLM-13 cells (human CXCR4 [6]): 67 fold

B2: Nanobody 03F11 (VHH)
VHH: EVQLVESGGGSVQPGGSLTLSCGTSGRTFNVMGWFRQAPGKEREFVAAVRWSSTGIYYTQYADSVKSRFTISRDNAKNTVYLEMNSLKPEDTAVYYCAADTYNSNPARWDGYDFRGQGTQVTVSS
notes: Monovalent anti-human CD4 Nanobody; also called CD4 3F11; anti-CD4 Nanobody 3F11; not shown: C-terminal myc-His6 tag (E. coli) or FLAG3-His6 tag (Pichia)
IC50, syncytia formation, SupT1 + HUT-78/IIIb [7]: 4600 nM | IC50, syncytia formation, SupT1 + HUT-78/NL4.3 [7]: 2800 nM | IC50, X4 HIV-1 NL4.3 replication in MT-4 cells [8]: 0.52 µg/mL | IC50, MT-4, NL4.3 2G12 res. [9]: 23.3 nM | IC50, MT-4, NL4.3 3F11 res. [9]: > 6700 nM | IC50, MT-4, NL4.3 281F12 res. [9]: > 6700 nM | IC50, MT-4, NL4.3 AMD-3100 res. [9]: 22.7 nM | IC50, MT-4, NL4.3 CXCL-12 res. [9]: 153 nM | IC50, MT-4, NL4.3 wt [9]: 34.7 nM | IC50, PBMC, NL4.3 3F11 res. [9]: > 6700 nM | IC50, PBMC, NL4.3 281F12 res. [9]: > 6700 nM | IC50, PBMC, NL4.3 WT [9]: 500 nM | IC50, MT-4, HE (R5/X4) [10]: 10 nM | IC50, MT-4, HIV-2 ROD (R5/X4) [10]: 22.7 nM | IC50, MT-4, NL4.3 (X4) [10]: 34.7 nM | IC50, PBMC, BaL (R5) [10]: 610 nM | IC50, PBMC, DJ259 (R5) [10]: 31 nM | IC50, PBMC, HE (R5/X4) [10]: > 1700 nM | IC50, PBMC, NL4.3 (X4) [10]: 500 nM | IC50, PBMC, SM145 (R5) [10]: 27 nM | binding result (cynomolgus CD4): binds | IC50, HIV-1 neutralization, MT-4 + NL4.3 [11]: 34.7 nM | EC50 [12]: 1.1 nM | IC50, MT-4 + NL4.3 (X4) [13]: 35.3 nM | IC50, PBMC + BaL (R5) [13]: 610 nM | IC50, PBMC + NL4.3 (X4) [13]: 580 nM | IC50, U87 + NL4.3 (X4) [13]: > 1330 nM | EC50 [14]: 1.4 nM | EC50 [15]: 0.76 nM | binding result (human CXCR4 [16]): no binding (tested: 100 nM) | IC50, HIV1 infectivity, X4 NL4.3 in MT-4 cells [17]: 60.7 nM | EC50 [18]: 1 nM | EC50 [19]: 0.7 nM | EC50 [20]: 0.5 nM | IC50, TZM-bl, DJ259 (R5) [21]: 169 nM | IC50, TZM-bl, NL4.3 3F11 res [21]: > 6700 nM | IC50, TZM-bl, NL4.3 281F12 res [21]: > 6700 nM | IC50, TZM-bl, NL4.3 WT (X4) [21]: 131 nM | IC50, TZM-bl, SM145 (R5) [21]: 8.33 nM | EC50 [22]: 0.6 nM
